Measurements: patent US20150344570A1 (published 2015)
Substitutions are numbered along the chain they refer to. Names may count otherwise.

T1: FcgRIIaR (human, UniProt P12318 34-217)
T1 construct: extracellular domain; also called FcγRIIa R; FcgRIIa type R; not shown: His tag attached to the C terminus
T1 sequence (looked up): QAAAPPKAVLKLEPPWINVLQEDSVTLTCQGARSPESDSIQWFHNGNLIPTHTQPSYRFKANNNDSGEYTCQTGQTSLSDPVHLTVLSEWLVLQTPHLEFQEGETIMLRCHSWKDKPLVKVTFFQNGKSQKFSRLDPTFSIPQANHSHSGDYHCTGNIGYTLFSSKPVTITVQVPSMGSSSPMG

T2: FcgRIIb (human, UniProt P31994 43-217)
T2 construct: extracellular domain; also called FcγRIIb; 2b; not shown: His tag attached to the C terminus
T2 sequence (looked up): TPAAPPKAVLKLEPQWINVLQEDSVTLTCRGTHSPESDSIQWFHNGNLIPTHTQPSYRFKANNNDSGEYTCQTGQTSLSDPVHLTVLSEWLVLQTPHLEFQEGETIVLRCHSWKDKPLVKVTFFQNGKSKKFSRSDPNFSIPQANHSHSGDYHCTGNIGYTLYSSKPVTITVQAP

T3: FcgRIIaH (human, UniProt P12318 34-217)
T3 construct: extracellular domain; also called FcγRIIa H; FcgRIIa type H; not shown: His tag attached to the C terminus
T3 sequence (looked up): T1 sequence (looked up) with R134H

B1: H240-Kn205/H240-Hl212/L73-k0 (antibody, human IgG1, kappa)
heavy 1: QDQLVQSGAEVKKPGASVKVSCKASGFNIKDTYIQWVRQAPGQGLEWMGRIDPLRKQTKYREKFEGRVTITADTSTNTAYMELSSLRSEDTAVYYCVRSGREFDYWGQGTLVTVSSASTKGPSVFPLAPSSKSTSGGTAALGCLVKDYFPEPVTVSWNSGALTSGVHTFPAVLQSSGLYSLSSVVTVPSSSLGTQTYICNVNHKPSNTKVDKKVEPKSCDKTHTCPPCPAPEYLGGPSVFLFPPKPKDTLMISRTPEVTCVVVDVSHEDPEVKFNWYVDGVEVHNAKTKPREEQWNCTYRVVSVLTVLHQDWLNGKEYKCKVSNKALPAPIEKTISKAKGQPREPQVCTLPPSRDELTKNQVSLWCLVKGFYPSDIAVEWESNGQPENNYKTTPPVLDSDGSFFLYSKLTVDKSRWQQGNVFSCSVMHEALHNHYTQKSLSLSP
heavy 2: B1 heavy 1 with Y233L, S238D, W295Y, C297S, K333V, C348Y, D355C, W365S, L367A, Y406V
light: DIQMTQSPSSLSASVGDRVTITCRASQDIHKYIAWYQQKPGQAPRLLIQYTSTLQPGVPSRFSGSGSGTDYTFTISSLQPEDIATYYCLQYEQLRTFGGGTKVEIKRTVAAPSVFIFPPSDEQLKSGTASVVCLLNNFYPREAKVQWKVDNALQSGNSQESVTEQDSKDSTYSLSSTLTLSKADYEKHKVYACEVTHQGLSSPVTKSFNRGEC
notes: Anti-epiregulin heterodimerized IgG1, knobs-into-holes; L234Y/Y296W/S298C in one H chain, S239D/K334V in the other
B2: H240-Kn223/H240-Hl068/L73-k0 (antibody, human IgG1, kappa)
heavy 1: B1 heavy 1 with Y233G, L234Y, G235W, S238M, H267D, W295Y, C297A, A326D
heavy 2: QDQLVQSGAEVKKPGASVKVSCKASGFNIKDTYIQWVRQAPGQGLEWMGRIDPLRKQTKYREKFEGRVTITADTSTNTAYMELSSLRSEDTAVYYCVRSGREFDYWGQGTLVTVSSASTKGPSVFPLAPSSKSTSGGTAALGCLVKDYFPEPVTVSWNSGALTSGVHTFPAVLQSSGLYSLSSVVTVPSSSLGTQTYICNVNHKPSNTKVDKKVEPKSCDKTHTCPPCPAPELLGGPSVFLFPPKPKDTLMISRTPEVTCVVVDVSHEEPEVKFNWYVDGVEVHNAKTKPREEQYNSTYRVVSVLTVLHQDWLNGKEYKCKVSNDALPKPIEETISKAKGQPREPQVYTLPPSRCELTKNQVSLSCAVKGFYPSDIAVEWESNGQPENNYKTTPPVLDSDGSFFLVSKLTVDKSRWQQGNVFSCSVMHEALHNHYTQKSLSLSP
light: B1 light
notes: Anti-epiregulin heterodimerized IgG1, knobs-into-holes
B3: H240-Kn208/H240-Hl076/L73-k0 (antibody, human IgG1, kappa)
heavy 1: B1 heavy 1 with Y233D, L234Q, G235W, S238M, H267D, D269E, W295Y, C297A
heavy 2: B2 heavy 2 with K329M
light: B1 light
notes: as for B2
B4: H240-Kn218/H240-Hl068/L73-k0 (antibody, human IgG1, kappa)
heavy 1: B1 heavy 1 with Y233Q, L234Y, G235W, S238M, H267D, W295Y, C297A, A326D
heavy 2: B2 heavy 2
light: B1 light
notes: as for B2
B5: H240-Kn224/H240-Hl068/L73-k0 (antibody, human IgG1, kappa)
heavy 1: B1 heavy 1 with Y233H, L234Y, G235W, S238M, H267D, W295Y, C297A, A326D
heavy 2: B2 heavy 2
light: B1 light
notes: as for B2
B6: H240-Kn207/H240-Hl076/L73-k0 (antibody, human IgG1, kappa)
heavy 1: B1 heavy 1 with Y233V, L234Q, G235W, S238M, H267D, D269E, W295Y, C297A
heavy 2: B2 heavy 2 with K329M
light: B1 light
notes: as for B2
B7: H240-Kn213/H240-Hl076/L73-k0 (antibody, human IgG1, kappa)
heavy 1: B1 heavy 1 with Y233A, L234Q, G235W, S238M, H267D, D269E, W295Y, C297A
heavy 2: B2 heavy 2 with K329M
light: B1 light
notes: as for B2
B8: H240-Kn219/H240-Hl068/L73-k0 (antibody, human IgG1, kappa)
heavy 1: B1 heavy 1 with Y233I, L234Y, G235W, S238M, H267D, W295Y, C297A, A326D
heavy 2: B2 heavy 2
light: B1 light
notes: as for B2
B9: H240-Kn209/H240-Hl076/L73-k0 (antibody, human IgG1, kappa)
heavy 1: B1 heavy 1 with Y233Q, L234Q, G235W, S238M, H267D, D269E, W295Y, C297A
heavy 2: B2 heavy 2 with K329M
light: B1 light
notes: as for B2
B10: H240-Kn212/H240-Hl076/L73-k0 (antibody, human IgG1, kappa)
heavy 1: B1 heavy 1 with Y233T, L234Q, G235W, S238M, H267D, D269E, W295Y, C297A
heavy 2: B2 heavy 2 with K329M
light: B1 light
notes: as for B2
B11: H240-Kn220/H240-Hl068/L73-k0 (antibody, human IgG1, kappa)
heavy 1: B1 heavy 1 with Y233M, L234Y, G235W, S238M, H267D, W295Y, C297A, A326D
heavy 2: B2 heavy 2
light: B1 light
notes: as for B2
B12: H240-Kn221/H240-Hl068/L73-k0 (antibody, human IgG1, kappa)
heavy 1: B1 heavy 1 with Y233T, L234Y, G235W, S238M, H267D, W295Y, C297A, A326D
heavy 2: B2 heavy 2
light: B1 light
notes: as for B2
B13: H240-Kn210/H240-Hl076/L73-k0 (antibody, human IgG1, kappa)
heavy 1: B1 heavy 1 with Y233I, L234Q, G235W, S238M, H267D, D269E, W295Y, C297A
heavy 2: B2 heavy 2 with K329M
light: B1 light
notes: as for B2
B14: H240-Kn211/H240-Hl076/L73-k0 (antibody, human IgG1, kappa)
heavy 1: B1 heavy 1 with Y233M, L234Q, G235W, S238M, H267D, D269E, W295Y, C297A
heavy 2: B2 heavy 2 with K329M
light: B1 light
notes: as for B2
B15: H240-Kn217/H240-Hl068/L73-k0 (antibody, human IgG1, kappa)
heavy 1: B1 heavy 1 with Y233D, L234Y, G235W, S238M, H267D, W295Y, C297A, A326D
heavy 2: B2 heavy 2
light: B1 light
notes: as for B2
B16: H240-Kn216/H240-Hl068/L73-k0 (antibody, human IgG1, kappa)
heavy 1: B1 heavy 1 with Y233V, L234Y, G235W, S238M, H267D, W295Y, C297A, A326D
heavy 2: B2 heavy 2
light: B1 light
notes: as for B2
B17: H240-Kn222/H240-Hl068/L73-k0 (antibody, human IgG1, kappa)
heavy 1: B1 heavy 1 with Y233A, L234Y, G235W, S238M, H267D, W295Y, C297A, A326D
heavy 2: B2 heavy 2
light: B1 light
notes: as for B2
B18: H240-Kn215/H240-Hl076/L73-k0 (antibody, human IgG1, kappa)
heavy 1: B1 heavy 1 with Y233H, L234Q, G235W, S238M, H267D, D269E, W295Y, C297A
heavy 2: B2 heavy 2 with K329M
light: B1 light
notes: as for B2
B19: H240-Kn214/H240-Hl076/L73-k0 (antibody, human IgG1, kappa)
heavy 1: B1 heavy 1 with Y233G, L234Q, G235W, S238M, H267D, D269E, W295Y, C297A
heavy 2: B2 heavy 2 with K329M
light: B1 light
notes: as for B2

What follows are binders tested against T4, FcgRIIIaV (human, UniProt P08637 17-208) (assay: SPR (Biacore); KD of H240-Kn033/H240-Hl033/L73-k0 divided by KD of this variant).
T4 construct: extracellular domain; also called FcγRIIIa V; 3aV; not shown: His tag attached to the C terminus
T4 sequence (P08637 17-208 F176V limits assumed): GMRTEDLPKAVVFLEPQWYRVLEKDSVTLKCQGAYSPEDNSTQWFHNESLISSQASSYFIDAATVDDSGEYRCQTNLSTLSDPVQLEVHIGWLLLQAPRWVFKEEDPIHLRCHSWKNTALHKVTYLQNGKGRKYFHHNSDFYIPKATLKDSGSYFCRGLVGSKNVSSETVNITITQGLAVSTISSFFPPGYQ

fold 3aV [fold] | Binder
11.4 | B1
84.2 | B2
120 | B3
96 | B4
90.6 | B5
98 | B6
65.8 | B7
98 | B8
77.4 | B9
82.8 | B10
96 | B11
102 | B12
98 | B13
92.3 | B14
126 | B15
104 | B16
88.9 | B17
70.6 | B18
60 | B19

What follows are binders tested against T1, FcgRIIaR in the same assay as above.

fold 2aR [fold] | Binder
1.2 | B1
11.9 | B2
1.5 | B3
20 | B4
13.7 | B5
1.1 | B6
0.9 | B7
52.9 | B8
0.6 | B9
1.2 | B10
29.6 | B11
25.5 | B12
1.3 | B13
1.3 | B14
26.4 | B15
32.2 | B16
26.4 | B17
0.7 | B18
0.7 | B19

These binders were tested against T2, FcgRIIb in the same assay as above.

fold 2b [fold] | Binder
2.1 | B1
11.8 | B2
1 | B3
15 | B4
9.2 | B5
0.6 | B6
0.5 | B7
36.7 | B8
0.4 | B9
0.6 | B10
20.6 | B11
15 | B12
0.8 | B13
0.8 | B14
27.5 | B15
20.6 | B16
17.4 | B17
0.5 | B18
0.5 | B19

Each binder was assayed against T3, FcgRIIaH in the same assay as above.

fold 2aH [fold] | Binder
1.4 | B1
5.5 | B2
1.7 | B3
15.8 | B4
9.1 | B5
3.1 | B6
2.5 | B7
26 | B8
2.1 | B9
2.3 | B10
15.3 | B11
11.8 | B12
3.5 | B13
2.6 | B14
6.8 | B15
16.3 | B16
10.6 | B17
2.1 | B18
1.6 | B19

What follows are binders tested against T5, FcgRIIIaF (human, UniProt P08637 17-208) in the same assay as above.
T5 construct: extracellular domain; also called FcγRIIIa F; 3aF; not shown: His tag attached to the C terminus
T5 sequence (P08637 17-208): as the sequence (P08637 17-208 F176V limits assumed) above, with V160F counted along it

fold 3aF [fold] | Binder
24.2 | B1
69 | B2
161 | B3
82.9 | B4
72.5 | B5
153 | B6
112 | B7
107 | B8
121 | B9
138 | B10
82.9 | B11
107 | B12
161 | B13
153 | B14
121 | B15
85.3 | B16
87.9 | B17
112 | B18
85.3 | B19
